For this assay, the target named is Gαo (Homo sapiens, UniProt P09471). In words: flow cytometry protein interaction assay. For orientation: A flow cytometer gives signals particle by particle.
Chain of Gαo (P09471 2-354): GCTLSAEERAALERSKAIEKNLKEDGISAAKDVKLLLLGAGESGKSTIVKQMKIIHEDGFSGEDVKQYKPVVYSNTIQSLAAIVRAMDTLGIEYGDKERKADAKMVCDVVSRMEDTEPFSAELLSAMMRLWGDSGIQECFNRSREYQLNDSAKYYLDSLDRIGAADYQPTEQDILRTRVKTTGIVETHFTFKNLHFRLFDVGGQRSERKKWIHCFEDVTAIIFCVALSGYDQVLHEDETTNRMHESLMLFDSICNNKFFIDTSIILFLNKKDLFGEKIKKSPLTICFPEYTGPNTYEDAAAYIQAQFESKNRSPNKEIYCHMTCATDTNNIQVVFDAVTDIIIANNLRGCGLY

B1: RGS16 (protein)
chain: MCRTLAAFPTTCLERAKEFKTRLGIFLHKSELGCDTGSTGKFEWGSKHSKENRNFSEDVLGWRESFDLLLSSKNGVAAFHAFLKTEFSEENLEFWLACEEFKKIRSATKLASRAHQIFEEFICSEAPKEVNIDHETHELTRMNLQTATATCFDAAQGKTRTLMEKDSYPRFLKSPAYRDLAAQASAASATLSSCSLDEPSHT
B1 registered a Kd of less than 100 nM.

B2: RGS4 (protein)
chain: MCKGLAGLPASCLRSAKDMKHRLGFLLQKSDSCEHNSSHNKKDKVVICQRVSQEEVKKWAESLENLISHECGLAAFKAFLKSEYSEENIDFWISCEEYKKIKSPSKLSPKAKKIYNEFISVQATKEVNLDSCTREETSRNMLEPTITCFDEAQKKIFNLMEKDSYRRFLKSRFYLDLVNPSSCGAEKQKGAKSSADCASLVPQCA
The molecule B2 displayed a Kd of less than 100 nM.

B3: RGS8 (protein)
chain: MAALLMPRRNKGMRTRLGCLSHKSDSCSDFTAILPDKPNRALKRLSTEEATRWADSFDVLLSHKYGVAAFRAFLKTEFSEENLEFWLACEEFKKTRSTAKLVSKAHRIFEEFVDVQAPREVNIDFQTREATRKNLQEPSLTCFDQAQGKVHSLMEKDSYPRFLRSKMYLDLLSQSQRRLS
For B3, the Kd was less than 100 nM.

B4: RGS7 (protein)
chain: MAQGNNYGQTSNGVADESPNMLVYRKMEDVIARMQDEKNGIPIRTVKSFLSKIPSVFSGSDIVQWLIKNLTIEDPVEALHLGTLMAAHGYFFPISDHVLTLKDDGTFYRFQTPYFWPSNCWEPENTDYAVYLCKRTMQNKARLELADYEAESLARLQRAFARKWEFIFMQAEAQAKVDKKRDKIERKILDSQERAFWDVHRPVPGCVNTTEVDIKKSSRMRNPHKTRKSVYGLQNDIRSHSPTHTPTPETKPPTEDELQQQIKYWQIQLDRHRLKMSKVADSLLSYTEQYLEYDPFLLPPDPSNPWLSDDTTFWELEASKEPSQQRVKRWGFGMDEALKDPVGREQFLKFLESEFSSENLRFWLAVEDLKKRPIKEVPSRVQEIWQEFLAPGAPSAINLDSKSYDKTTQNVKEPGRYTFEDAQEHIYKLMKSDSYPRFIRSSAYQELLQAKKKSGNSMDRRTSFEKFAQNVGRNIPIFPCHKNCTPTLRASTNLL
The molecule B4 had a Kd of less than 100 nM.

In general, Kd refers to the equilibrium constant for the complex coming apart. High values mean weaker binding, low ones tighter binding.

Values taken from PMC2908316 (2009).
